According to patent US10533050B2, “Methods and compositions for liver cancer therapy” (Institut National de la Sante et de la Recherche Medicale …, priority 2010, dated 2020):

Key:
Assay type in all cases: cell-based
[1] = test system: side population cells of Huh7 cells; experiment: Spheroid formation of Huh7 side population cells under low adherence culture conditions; details: 5 nM doxorubicin, 9 days; FIG. 9
Experimental: The dye excluding side population cells of Huh7 cells were isolated as described in Example 8. Side population cells were then seeded into ultra low adherence 96-well plates (200 cells/well) in M11 medium, and grown for 9 days at 37° C. in the presence of control or anti-progastrin polyclonal antibodies (1 μg/ml), 5 nM doxorubicin (a chemotherapeutic agent used in certain liver cancer therapy), or DMSO (vehicle for doxorubicin) (15 wells per condition). The composition of M11 medium was as follows: DMEM/F12-Glutamax (Catalog #31331 Invitrogen); 20 ng/ml EGF (R&D systems); 10 ng/ml FGF (R&D systems); 20 microg/ml Insulin (Sigma); 1/100 dilution of N2 supplement (Catalog #P1510, Gibco); 2 μg/ml ciprofloxacin, 5 μg/ml gentamycin and 3 μg/ml glucose. At the end of the experiment, photomicrographs were taken, and the number of spheres per well counted and the mean and standard deviation calculated.
The dye excluding side population cells of Huh7 cells were isolated as described in Example 8. […] At the end of the experiment, photomicrographs were taken, and the number of spheres per well counted and the mean and standard deviation calculated.

liver cancer cells = experiment: Neutralizing activity with liver cancer cells; details: tests with liver cancer cells
Experimental: A specific test for assessing whether a particular anti-hPG antibody is neutralizing can be performed as follows. Huh7 hepatocellular carcinoma cells are seeded in ultra low-adherence 24-well plates (500 cells/well) in serum-free M11 medium. Cells are grown at 37° C. and treated twice daily for 7 days with the test anti-hPG antibody or a control, non-specific monoclonal antibody, at antibody concentrations of about 5 μg/mL. At the end of the experiment, photomicrographs are taken, and the number of spheres per well is counted and the median and percentile distribution calculated.

[2] = test system: PLC/PRL/5 hepatocellular carcinoma cells; experiment: Spheroid formation of PLC/PRL/5 cells under low adherence culture conditions; details: vs control MAb
Experimental: PLC/PRL/5 hepatocellular carcinoma cells were seeded in ultra low-adherence 24-well plates (220 cells/well) in serum-free M11 medium (DMEM/F12 with 20 ng/ml EGF, 10 ng/ml FGF, 20 μg/ml insulin, N2 supplement, 2 μg/ml ciprofloxacin, 5 μg/ml gentamycin and 3 μg/ml glucose). Cells were grown for 10 days at 37° C., with the daily addition of control or anti-hPG MAb3 monoclonal antibodies (1 μg/ml). At the end of the experiment, photomicrographs were taken, and the number of spheres per well counted and the mean and standard deviation calculated. In one experiment, PLC/PRL/5 hepatocellular carcinoma cells were seeded in ultra low-adherence 96-well plates (35 cells/well) in serum-free M11 medium (DMEM/F12 with 20 ng/ml EGF, 10 ng/ml FGF, 20 μg/ml insulin, N2 supplement, 2 μg/ml ciprofloxacin, 5 μg/ml gentamycin, and 3 μg/ml glucose). […] At the end of the experiment, photomicrographs were taken, and the number of spheres per well counted and the median and percentile distribution calculated. […] At the end of the experiment, photomicrographs were taken, and the number of spheres per well counted and the median and percentile distribution calculated. […] At the end of the experiment, photomicrographs were taken, and the number of spheres per well counted and the median and percentile distribution calculated.

[3] = test system: Huh7 hepatocellular carcinoma cells; experiment: Spheroid formation of Huh7 cells after antibody pre-treatment under regular adherence; details: pre-treatment with 10 μg/mL, then 5 days without treatment, vs control MAb; FIG. 13A-B
Experimental: In one experiment, 75,000 Huh7 hepatocellular carcinoma cells/well were first seeded into 6-well plates in MEMα with 10% FCS, serum starved overnight and grown for 60 hours in MEMα+0.5% Pannexin H in the presence of 10 μg/mL anti-progastrin monoclonal antibody MAb8 or control monoclonal antibody (P3X63Ag8, ATCC, Ref TIB-9). At the end of treatment, for each treatment group, 500 cells/well were plated into eight wells of ultra low-adherence 24-well plates in 500 μl of serum-free M11 medium containing bFGF and EGF, and grown for a further 5 days without treatment. At the end of this period, photographs were taken, the number of spheres per well was counted, and sphere surface was measured. […] Thereafter, an operator who was blinded to the identity of all wells counted the spheroids.
In a second experiment, 75,000 Huh7 hepatocellular carcinoma cells/well were first seeded into 6-well plates in MEMα with 10% FCS, serum starved overnight and grown for 60 hours in MEMα+0.5% Pannexin H in the presence of 10 μg/mL anti-progastrin monoclonal antibody MAb16 or a control monoclonal antibody (P3X63Ag8, ATCC, Ref TIB-9). […] At the end of this period, photographs were taken, the number of spheres per well was counted, and sphere surface was measured. […] Thereafter, an operator who was blinded to the identity of all wells counted the spheroids.

Molecule	Number of spheroids formed [1]	Neutralizing activity (liver cancer cells)	Number of spheroids formed ([2]; 6 μg/ml twice daily, 7 days, FIG. 15C)	Ability to grow as spheroids [3]	Number of spheroids formed ([2]; 3 μg/ml twice daily, 8 days, FIG. 15A)
COc1cccc2c1C(=O)c1c(O)c3c(c(O)c1C2=O)C[C@@](O)(C(=O)CO)C[C@@H]3O[C@H]1C[C@H](N)[C@H](O)[C@H](C)O1 [Doxorubicin, doxorubicin]	reduce the number of spheroids	–	–	–	–
MAb3: murine N-terminal anti-hPG monoclonal antibody, hybridoma 6B5B11C10, VH SEQ ID NO:12, VL SEQ ID NO:13 (antibody, V domains shown) VH: EVQLQQSGTVLARPGASVKMSCKASGYIFTSYWVHWVKQRPGQGLEWIGGFYPGNSDSRYNQKFKGKATLTAVTSASTAYMDLSSLTNEDSAVYFCTRRDSPQYWGQGTTLTVSS VL: DVLMTQTPLSLPVSLGDQASISCRSSQSIVHSNGNTYLEWYLQKPGQSPKLLIYKVSNRFSGVPDRFSGSGSGTDFTLKISRLEAEDLGVYYCFQGSHVPFTFGGGTKLEIK	–	exhibited neutralizing activity	–	–	–
MAb8: murine C-terminal anti-hPG monoclonal antibody, hybridoma 1C10D3B9, VH SEQ ID NO:59, VL SEQ ID NO:63 (antibody, V domains shown) VH: EVQLVESGGGLVKPGGSLKLSCAASGFTFTTYAMSWVRQTPEKRLEWVATISSGGTYTYYPDSVKGRFTISRDNAKNALYLQMSSLRSEDTAMYYCATQGNYSLDFWGQGTSLTVSS VL: DIVMTQAASSNPVTLGTSASISCRSSKSLRHTKGITFLYWYLQKPGQSPQLLIYQMSNLASGVPDRFSSSGSGTDFTLRISRVEAEDLGVYYCAQNLELPLTFGAGTKLELK	–	exhibited neutralizing activity	significantly reduced	significantly reduced	–
MAb19: murine N-terminal anti-hPG monoclonal antibody, hybridoma 1B3B4F11, VH SEQ ID NO:62, VL SEQ ID NO:66 (antibody, V domains shown) VH: DVQLQESGPGLVKPSQSLSLTCTVTGYSITSDYAWNWIRQFPGNKLEWMGYISFSGYTSYNPSLKSRISVTRDTSRNQFFLQLTSVTTEDTATYYCAREVNYGDSYHFDYWGQGTIVTVSS VL: QLALTQSSSASFSLGASAKLTCTLSSQHRTYTIEWYQQQSLKPPKYVMEVKKDGSHSTGHGIPDRFSGSSSGADRYLSISNIQPEDEAIYICGVGDAIKGQSVFVFGGGTKVTVL	–	exhibited neutralizing activity	–	–	significantly reduced
